From the supplement of paper PMC7125110
± gives the standard error. For some of these results: Variants at the floor of the assay were thinned out.

B1: glmS ribozyme (parent)
chain: AUAAAAGCGCCAGAACUACAGAAAUGUAGUUGACGAGGAGGAGGUUUAUCGAAUUUUCGGCGGAUGCCUCCAAA

Assays:
Conditions in all cases: with glucosamine-6-phosphate
[1] = variants of: B1; test: kcat; higher = faster cleavage; RNA array
Method in brief: (§1)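 The measurements used barcoded ribozyme variants on sequenced MiSeq chips, transcribed in situ by E. coli RNA polymerase and tracked at 37 °C with a hybridised Cy3 probe. Glucosamine-6-phosphate, 40 μM to 10 mM in HEPES/KCl/Mg(OAc)2 buffer, was flowed in while tiles were imaged over ~14 h. Baseline-normalised signals, also normalised to non-cleaving reference variants, gave per-tile medians that were fit to one- or two-exponential decays for kobs. kcat and KM resulted from weighted Michaelis–Menten fits across concentrations.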

[2] = variants of: B1; test: KM; higher = weaker cofactor use; RNA array
Method in brief: as §1

[3] = variants of: B1; test: self-cleavage kobs at 640 uM GlcN6P; higher = faster cleavage; RNA array
Method in brief: as §1

[4] = variants of: B1; test: self-cleavage kobs at 2500 uM GlcN6P; higher = faster cleavage; RNA array
Method in brief: as §1

[5] = variants of: B1; test: self-cleavage kobs at 10000 uM GlcN6P; higher = faster cleavage; RNA array
Method in brief: as §1

[6] = variants of: B1; test: self-cleavage kobs at 40 uM GlcN6P; higher = faster cleavage; RNA array
Method in brief: as §1

[7] = variants of: B1; test: self-cleavage kobs at 160 uM GlcN6P; higher = faster cleavage; RNA array
Method in brief: as §1

Variant | kcat [1] | KM [2] | self-cleavage kobs at 640 uM GlcN6P [3] | self-cleavage kobs at 2500 uM GlcN6P [4] | self-cleavage kobs at 10000 uM GlcN6P [5] | self-cleavage kobs at 40 uM GlcN6P [6] | self-cleavage kobs at 160 uM GlcN6P [7]
U65C C71U | 0.000792 ± 0.00011 s⁻¹ | 1460 ± 510 µM | 0.000236 ± 4.3e-05 s⁻¹ | 0.000617 ± 0.00011 s⁻¹ | 0.000659 ± 8e-05 s⁻¹ | – | –
A12U A14U | 0.00461 ± 0.0012 s⁻¹ | 2000 ± 750 µM | 0.00119 ± 0.00018 s⁻¹ | 0.00188 ± 0.00031 s⁻¹ | 0.00449 ± 0.00046 s⁻¹ | 0.00011 ± 1.2e-05 s⁻¹ | 0.000269 ± 5.6e-05 s⁻¹
A6U U31A | 0.000122 ± 2.6e-05 s⁻¹ | – | – | 8.83e-05 ± 2.1e-05 s⁻¹ | 9.85e-05 ± 2.2e-05 s⁻¹ | – | –
A14G G32A | 0.0158 ± 0.0015 s⁻¹ | 2500 ± 310 µM | 0.00305 ± 0.0005 s⁻¹ | 0.00726 ± 0.0011 s⁻¹ | 0.0136 ± 0.0018 s⁻¹ | 0.000266 ± 3.1e-05 s⁻¹ | 0.000935 ± 0.00013 s⁻¹
A6C A53U | 8.96e-05 ± 2.4e-06 s⁻¹ | 3600 ± 220 µM | – | 3.64e-05 ± 7.4e-06 s⁻¹ | 6.61e-05 ± 1.1e-05 s⁻¹ | – | –
A6C U31G | 2.39e-05 ± 9.7e-07 s⁻¹ | 3730 ± 510 µM | – | – | 1.74e-05 ± 5.6e-06 s⁻¹ | – | –
A33U G66A | 6.76e-05 ± 1.2e-06 s⁻¹ | 2790 ± 180 µM | – | 3.2e-05 ± 1e-05 s⁻¹ | 5.28e-05 ± 6.4e-06 s⁻¹ | – | –
G43U C70U | 2.12e-05 ± 3.3e-06 s⁻¹ | – | – | 2.17e-05 ± 8.6e-06 s⁻¹ | – | < 1e-05 s⁻¹ | < 1e-05 s⁻¹
C11U C67G | 0.000216 ± 2.7e-05 s⁻¹ | 633 ± 220 µM | 0.000102 ± 1e-05 s⁻¹ | 0.000218 ± 2.2e-05 s⁻¹ | 0.000189 ± 1.7e-05 s⁻¹ | 2.61e-05 ± 1.2e-05 s⁻¹ | 4.28e-05 ± 9.2e-06 s⁻¹
A15C U46C | 0.000304 ± 5.3e-05 s⁻¹ | 1330 ± 520 µM | 0.000119 ± 1.9e-05 s⁻¹ | 0.000176 ± 2.5e-05 s⁻¹ | 0.000295 ± 4.8e-05 s⁻¹ | – | –
G40U A42U | 0.000115 ± 2e-05 s⁻¹ | – | 4.15e-05 ± 9.6e-06 s⁻¹ | 0.000109 ± 1.3e-05 s⁻¹ | 9.45e-05 ± 1.4e-05 s⁻¹ | – | 2.53e-05 ± 1.2e-05 s⁻¹
C11U U30C | 0.000527 ± 0.00014 s⁻¹ | 2780 ± 1100 µM | 9.85e-05 ± 1.3e-05 s⁻¹ | 0.000213 ± 4.9e-05 s⁻¹ | 0.000465 ± 9.9e-05 s⁻¹ | – | 5.41e-05 ± 2.1e-05 s⁻¹
A33C U47A | 0.000256 ± 2.1e-05 s⁻¹ | 2950 ± 550 µM | 4.21e-05 ± 1.7e-05 s⁻¹ | 0.000136 ± 4.7e-05 s⁻¹ | 0.000195 ± 3.4e-05 s⁻¹ | – | –
A42U A53C | 0.000148 ± 2.3e-05 s⁻¹ | 3050 ± 1500 µM | – | 7.29e-05 ± 2e-05 s⁻¹ | 0.000113 ± 1.6e-05 s⁻¹ | – | –
G41C C71U | 0.000207 ± 2.1e-05 s⁻¹ | 2580 ± 590 µM | 3.67e-05 ± 8.3e-06 s⁻¹ | 0.000119 ± 1.8e-05 s⁻¹ | 0.00016 ± 1.7e-05 s⁻¹ | – | –
C67G U69C | 0.00123 ± 0.00012 s⁻¹ | 958 ± 170 µM | 0.000506 ± 9.2e-05 s⁻¹ | 0.00077 ± 0.00014 s⁻¹ | 0.00127 ± 0.0002 s⁻¹ | 5.09e-05 ± 1.4e-05 s⁻¹ | 0.000179 ± 3.4e-05 s⁻¹

Variant | kcat [1] | KM [2] | self-cleavage kobs at 640 uM GlcN6P [3] | self-cleavage kobs at 2500 uM GlcN6P [4] | self-cleavage kobs at 10000 uM GlcN6P [5] | self-cleavage kobs at 40 uM GlcN6P [6] | self-cleavage kobs at 160 uM GlcN6P [7]
U31A G37A | 0.0007 ± 0.00026 s⁻¹ | – | 0.000245 ± 3.6e-05 s⁻¹ | 0.000309 ± 7.3e-05 s⁻¹ | 0.000939 ± 0.00018 s⁻¹ | – | 6.91e-05 ± 1.3e-05 s⁻¹
G13A G41A | 6.21e-05 ± 2.2e-06 s⁻¹ | 1770 ± 270 µM | – | 3.77e-05 ± 1.2e-05 s⁻¹ | 5.25e-05 ± 8.1e-06 s⁻¹ | – | –
U45C A53U | 0.0028 ± 0.0008 s⁻¹ | 4320 ± 1700 µM | 0.00031 ± 5e-05 s⁻¹ | 0.00109 ± 0.00022 s⁻¹ | 0.00199 ± 0.00035 s⁻¹ | 4.26e-05 ± 1.2e-05 s⁻¹ | 0.000117 ± 2.5e-05 s⁻¹
G29A G37U | < 1e-05 s⁻¹ | – | – | – | – | – | –
C16G U65A | 0.000589 ± 6.3e-05 s⁻¹ | 3010 ± 580 µM | 0.000107 ± 1.4e-05 s⁻¹ | 0.00027 ± 6.5e-05 s⁻¹ | 0.00045 ± 4.9e-05 s⁻¹ | – | –
C58U A64G | 0.00011 ± 1.9e-05 s⁻¹ | – | – | 5.74e-05 ± 1.1e-05 s⁻¹ | 8.51e-05 ± 1.1e-05 s⁻¹ | – | –
U47C G63A | < 1e-05 s⁻¹ | – | < 1e-05 s⁻¹ | – | – | – | –
A14G U56G | 0.0818 ± 0.014 s⁻¹ | 1560 ± 320 µM | 0.0223 ± 0.0035 s⁻¹ | 0.0673 ± 0.027 s⁻¹ | 0.0704 ± 0.02 s⁻¹ | 0.00201 ± 0.00033 s⁻¹ | 0.0087 ± 0.0018 s⁻¹
U46C C50U | 1.22e-05 ± 2e-06 s⁻¹ | – | – | – | – | < 1e-05 s⁻¹ | –
A12U G29U G59U C68G C70A | 3.34e-05 ± 1.4e-05 s⁻¹ | – | 4.93e-05 ± 2.3e-05 s⁻¹ | – | – | – | –
U31A C67U | 0.00291 ± 0.0011 s⁻¹ | – | 0.00143 ± 0.00019 s⁻¹ | 0.00135 ± 0.00029 s⁻¹ | 0.00427 ± 0.00063 s⁻¹ | 0.000116 ± 1.4e-05 s⁻¹ | 0.000324 ± 8.8e-05 s⁻¹
C11A U30A U45G | 2.81e-05 ± 1.1e-06 s⁻¹ | 3690 ± 410 µM | – | – | – | – | –
C11U C50G C58A | 0.000158 ± 1.6e-05 s⁻¹ | – | 0.000189 ± 3e-05 s⁻¹ | 0.000242 ± 0.00011 s⁻¹ | 0.000135 ± 2.2e-05 s⁻¹ | 0.000112 ± 3.6e-05 s⁻¹ | 0.00015 ± 1.7e-05 s⁻¹
G40A U55G | 0.00116 ± 0.00032 s⁻¹ | 369 ± 170 µM | 0.000944 ± 0.00014 s⁻¹ | – | 0.00106 ± 0.00018 s⁻¹ | 0.000131 ± 1.8e-05 s⁻¹ | 0.000246 ± 5.5e-05 s⁻¹
U30C C58G C68A | 5.09e-05 ± 2.1e-05 s⁻¹ | – | 9.15e-05 ± 3.9e-05 s⁻¹ | 7.09e-05 ± 1.9e-05 s⁻¹ | – | – | –
U31C G37U | < 1e-05 s⁻¹ | – | < 1e-05 s⁻¹ | – | – | < 1e-05 s⁻¹ | –
